Data from patent US20260209387A1, “SINGLE-DOMAIN ANTIBODY FOR INHIBITION OF NEUTROPHIL ELASTASE ACTIVITY” (UNIVERSITE DE LIEGE, priority 2023, published 2026).

Key:
hNE = target: T1, hNE (Homo sapiens, UniProt P08246); experiment: Stability of NbE201 towards hNE (SDS-PAGE, 37° C.); type: in vitro ADME
T1 construct: purchased Elastin Products Company (EPC)
T1 sequence (P08246 30-247): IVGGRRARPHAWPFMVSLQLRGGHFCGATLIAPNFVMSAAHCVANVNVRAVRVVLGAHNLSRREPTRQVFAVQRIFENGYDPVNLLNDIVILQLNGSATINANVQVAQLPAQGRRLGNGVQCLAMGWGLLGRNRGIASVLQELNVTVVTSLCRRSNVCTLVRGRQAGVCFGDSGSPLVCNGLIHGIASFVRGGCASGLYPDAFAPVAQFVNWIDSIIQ
Description: NbE201 (26.4 μM) was incubated at 37° C. alone or in the presence of hNE ([NbE201]: [hNE]=4:1). Aliquots (10 μL) taken at different time intervals were mixed with 4 μL of sample loading buffer (Tris-HCl (pH 6.8), SDS denaturant (4%, % w/v), β-mercaptoethanol (5%, % v/v), bromophenol blue (0.01%, % w/v), glycerol (20%, % v/v), H2O)) and then stored at −20° C. until analysis by SDS-PAGE using 4-20% Mini-PROTEAN TGX Protein Gel, 10 wells, 50 μL (Bio-Rad, Germany). Then, the gel was stained by Coomassie blue, destained in water and imaged using a Gel Doc EZ Imager (Biorad). The relative amount of intact protein was quantified by densitometry analysis with a Gel Doc EZ Imager program using the intensity of the band at time zero as the relative standard. hNE alone was incubated on similar conditions and an aliquot was taken at different time points to measure its activity using N-Succinyl-Ala-Ala-Ala-paraNitroAnilide as substrate as describe above.

[1] = Urea-induced unfolding (intrinsic fluorescence, far UV-CD); type: physicochemical; details: pH 7, 25° C.
Description: 1.11.1. Preparation of the samples. Samples of NbE201 were incubated overnight at 25° C. in the presence of increasing concentrations of urea (Sigma-Aldrich) in 0.05 M NaP buffer pH 7. The protein concentration was 0.2 mg mL-1. The denaturant concentration in each sample was determined from refractive index measurements (Pace, C. N., 1986, doi.org/10.1016/0076-6879 (86) 31045-0), using a R5000 hand refractometer from Atago (Tokyo, Japan). The same samples were used to measure both the intrinsic fluorescence and far ultraviolet circular dichroism (UV-CD) spectra. Blank samples (without the Nb) every 1 M urea were prepared to make a reference curve that was used to correct the contribution of (buffer+urea) for fluorescence and circular dichroism (CD) signal at each urea concentration.
1.11.2. Measurements of fluorescence and far-UV-CD signals/spectra. Intrinsic fluorescence spectra to monitor changes in the tertiary structure were recorded at 25° C. from 305 nm to 440 nm after excitation at 280 nm with 5 nm excitation and emission slits using a Cary Eclipse Fluorimeter (Agilent, Santa Clara, USA) equipped with a thermostatically controlled multi-cuvette holder and a 10*0.4 mm pathlength quartz micro cuvette. The voltage applied at the detector was 710 V. Data acquisition was made every 0.5 nm with a scan rate of 30 nm·min^−1.
Far UV-CD spectrum of the native and denatured states (i.e. in 9 M urea) were recorded from 190 nm to 260 nm in a 0.2 mm pathlength quartz cuvette at 25° C. […] were recorded with a 0.1 nm data interval, a data pitch of 0.1 nm, 2 s integration time, a bandwidth of 1 nm and a scanning speed of 50 nm/min. The unfolding transitions were monitored by far UV-CD at 207 nm in a 0.2 mm pathlength quartz cuvette. At each denaturant concentration, 37 data points were acquired with a 1 nm bandwidth, a reading frequency of 5 s and a 4 s integration time, and averaged. The measurements were carried out with Jasco J-810 spectropolarimeter, (JASCO, Lisses, France) equipped with a Peltier cell holder.
1.11.3. Data analysis. The intrinsic fluorescence spectra were fitted using a five parameter Weibull function (from software SigmaPlot 5.0) to determine the wavelength corresponding to the highest fluorescence intensity (λmax). The changes in fluorescence intensity at 337 nm were also used to monitor the unfolding transition. The transition curves obtained were analyzed based on a two-state (N ? U) model according to Dumoulin et al. (doi: 10.1110/ps.34602) and equation 1:
where x is the concentration in denaturant and a=(ΔG°NU(H2O)−m*[D])/RT, and yobs is the monitored signal (i.e. λmax, F337 nm or CD207 nm) at a given denaturant concentration, and YN and YU are the values of these signals for the native and denatured states, respectively in the absence of denaturant. ΔG°NU(H2O) is the difference in free energy between the folded and unfolded states at 25° C.; m is a measure of the dependence of the free energy on the denaturant concentration, and [D] is the denaturant concentration. p and q are the slopes of the pre- and post-unfolding baselines, respectively, R is the gas constant, and T is the absolute temperature. Cm, the denaturant concentration at the midpoint of the denaturation curve ([U]/[N]=1) is defined as ΔG°NU(H2O)/m.

B1: NbE201: anti-hNE ISVD (VHH/nanobody) from immunized lama, amino acid sequence SEQ ID NO: 4 (protein)
VHH: QVQLQESGGGLVQAGGSLRLSCVVPGRTISLYRMGWFRQAPGKEREFVAGINWSGDMTDYVDSVKGRFTISRDNAKNTVYLEMNSLKPEDTAIYYCTADPKLLPLADSSYGYWGQGTQVTVSS
hNE; 37° C., [NbE201]:[hNE] 4:1
  time NbE201 is stable in presence of hNE: 14 days
hNE; in presence of hNE, [NbE201]:[hNE] 4:1, 37° C., 14 days
  percentage of remaining complex (intact NbE201) over time: around 100%
[1]; CD
  Cm: 5.8 M
  m: 7.7 kJ · mol^−1 M^−1
  ΔG°NU(H2O): 10.6 kcal/mol
[1]; F (337 nm)
  Cm: 5.8 M
  m: 6.7 kJ · mol^−1 M^−1
  ΔG°NU(H2O): 9.32 kcal/mol
[1]; F (λmax)
  Cm: 6.0 M
  m: 6.5 kJ · mol^−1 M^−1
  ΔG°NU(H2O): 9.35 kcal/mol
[1]; Mean ± SD of the three probes
  Cm: 5.9 ± 0.1 M
  m: 7.0 ± 0.5 kJ · mol^−1 M^−1
  ΔG°NU(H2O): 9.75 ± 0.598 kcal/mol
